Article PMC12051018, “Purification and characterization of a thermophilic NAD ^+‐dependent lactate dehydrogenase from Moorella thermoacetica” (FEBS Open Bio, 2025)

Columns and labels:
[1] = substrate: CC(=O)C(=O)O; assay: purified protein; format: biochemical, Neomoorella thermoacetica; conditions: 0.5 mM NADH, 50 mM Tris/HCl pH 8, 10 mM NaCl, 4 mM DTE, 65 °C, anoxic
[2] = substrate: NC(=O)c1ccc[n+]([C@@H]2O[C@H](COP(=O)(O)OP(=O)(O)OC[C@H]3O[C@@H](n4cnc5c(N)ncnc54)[C@H](O)[C@@H]3O)[C@@H](O)[C@H]2O)c1; assay: purified protein; format: biochemical, Neomoorella thermoacetica; conditions: 20 mM L-lactate, 50 mM Tris/HCl pH 8, 10 mM NaCl, 4 mM DTE, 65 °C, anoxic, varied: cofactor
[3] = substrate: NC(=O)C1=CN([C@@H]2O[C@H](COP(=O)(O)OP(=O)(O)OC[C@H]3O[C@@H](n4cnc5c(N)ncnc54)[C@H](O)[C@@H]3O)[C@@H](O)[C@H]2O)C=CC1; assay: purified protein; format: biochemical, Neomoorella thermoacetica; conditions: 1 mM pyruvate, 50 mM Tris/HCl pH 8, 10 mM NaCl, 4 mM DTE, 65 °C, anoxic, varied: cofactor
[4] = substrate: C[C@H](O)C(=O)O; assay: purified protein; format: biochemical, Neomoorella thermoacetica; conditions: 2 mM NAD+, 50 mM Tris/HCl pH 8, 10 mM NaCl, 4 mM DTE, 65 °C, anoxic
[5] = molecular target: the molecule itself; assay: SEC; calibrated Superose 6 column, buffer 4 (50 mM Tris/HCl pH 7.5, 150 mM NaCl, 20 mM MgSO4, 20% glycerol, 4 mM DTE, 4 uM resazurin), size standards aprotinin, carbonic anhydrase, ovalbumin, conalbumin; native size 60 kDa against a 34 kDa monomer

Protein	Km [1] [µM]	Km [2] [µM]	Km [3] [µM]	Km [4] [µM]	stoichiometry N [5]
LDH from M. thermoacetica (Moorella thermoacetica ATCC 39073) (protein, native full-length, purified from lactate-grown cells; native 60 kDa, dimer) MGLQGPAKVAIIGTGYVGSSTAFALLFSPLVKEMVLVDVNHAKAEGEAMDLAHAATLIRPVEVYAGRPADCAGSRIVIFTAGANQQPGQTRLDLIHRNTAIVRQALPEILHYCPEALVLMVANPVDILTYVAWKISGLPENRVLGSGTVLDSARFRHLLSRHYRVDPRNIHAYVIGEHGDTEVPVWSLANVAGVDLEEFYLMDGMREEEAFRVEISHQVREAAYEIIERKGVTSYGVALALSRIIECILRNEHSVLTISSVIRDLYGIDGEVALSLPCLVGNEGREKVLAIPLVAREKAALKHSATTLQQLIAQLSL	1000	500	100	20000	–
NAD+-dependent lactate dehydrogenase from Moorella thermoacetica (enzyme, Moorella thermoacetica (DSM 521), UniProt Q2RHG3 1-317, looked up, L-lactate dehydrogenase of Moorella thermoacetica DSM 521, product of the ldh gene (954 bp, predicted mass 34.6 kDa), identified by peptide mass fingerprinting; Native enzyme purified from the organism; on SDS-PAGE about 34 kDa, which fits the predicted monomer; also called LDH; gene product of the ldh gene) MGLQGPAKVAIIGTGYVGSSTAFALLFSPLVKEMVLVDVNHAKAEGEAMDLAHAATLIRPVEVYAGRPADCAGSRIVIFTAGANQQPGQTRLDLIHRNTAIVRQALPEILHYCPEALVLMVANPVDILTYVAWKISGLPENRVLGSGTVLDSARFRHLLSRHYRVDPRNIHAYVIGEHGDTEVPVWSLANVAGVDLEEFYLMDGMREEEAFRVEISHQVREAAYEIIERKGVTSYGVALALSRIIECILRNEHSVLTISSVIRDLYGIDGEVALSLPCLVGNEGREKVLAIPLVAREKAALKHSATTLQQLIAQLSL	–	–	–	–	2
